# Measured values from patent publication US20230272086A1 (CHIA TAI TIANQING PHARMACEUTICAL GROUP, published 2023).
# Changes are numbered by the printed parent chain.
# T1: cynomolgus monkey ST2 antigen (Cyno-ST2-his, Sino biological, 90915-C08H) (cynomolgus monkey, UniProt Q01638 19-328 (human entry))
# T1 construct: Bought protein; not shown: his tag
# T1 chain: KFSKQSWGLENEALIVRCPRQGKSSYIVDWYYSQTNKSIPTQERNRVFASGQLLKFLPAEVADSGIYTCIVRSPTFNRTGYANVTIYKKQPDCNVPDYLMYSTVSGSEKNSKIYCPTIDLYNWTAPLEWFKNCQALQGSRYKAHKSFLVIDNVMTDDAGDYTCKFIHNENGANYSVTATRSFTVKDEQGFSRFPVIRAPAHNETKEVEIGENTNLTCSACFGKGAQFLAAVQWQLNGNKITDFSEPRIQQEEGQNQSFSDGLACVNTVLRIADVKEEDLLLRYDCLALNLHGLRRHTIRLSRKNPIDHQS
# T2: recombinant protein containing hST2 extracellular domain with mouse antibody heavy chain Fc tag (hST2-ECD-mFc) (human)
# T2 construct: Used for SPR and for ELISA of chimeric and humanized antibodies; also called human ST2 antigen
# T2 chain: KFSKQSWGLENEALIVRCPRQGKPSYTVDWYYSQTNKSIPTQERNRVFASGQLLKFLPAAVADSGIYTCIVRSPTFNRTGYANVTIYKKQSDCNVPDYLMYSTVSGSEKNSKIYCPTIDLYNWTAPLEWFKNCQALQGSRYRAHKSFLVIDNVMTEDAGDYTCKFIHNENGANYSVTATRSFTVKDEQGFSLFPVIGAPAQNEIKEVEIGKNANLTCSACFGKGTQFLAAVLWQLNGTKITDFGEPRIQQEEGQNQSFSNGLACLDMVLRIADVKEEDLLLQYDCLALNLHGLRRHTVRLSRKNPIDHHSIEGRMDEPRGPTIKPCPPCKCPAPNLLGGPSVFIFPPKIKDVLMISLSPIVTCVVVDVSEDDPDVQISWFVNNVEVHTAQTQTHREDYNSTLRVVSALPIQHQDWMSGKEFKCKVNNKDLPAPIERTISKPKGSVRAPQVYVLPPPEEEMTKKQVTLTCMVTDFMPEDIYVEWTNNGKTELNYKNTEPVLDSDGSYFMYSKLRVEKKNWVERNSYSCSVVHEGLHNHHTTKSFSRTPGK
# B1: Chimeric 31C8 (antibody, human IgG2, kappa, V domains shown)
# VH: QVQLQQSGPELVRPGASVTLSCKASGYIFIDSEMHWVKQTPVHGLEWIGAIDPETGDTVYNQKFKGKATLTADKSSSTASMELSSLTSEDSAVYYCTGSTTDYYFAYWGQGTTLTVSS
# VL: DIVMTQAAFSNPVTLGTSASISCRSSKSLLHSNGIIYLYWYLQKPGQSPQLLIYQMSNLASGVPDRFSSSGSGTDFTLRISRVEAEDVGVYYCAQNLELPFTFGSGTKLEIKR
# notes: also called xi31C8
# B2: Chimeric 3C6 (antibody, human IgG2, kappa, V domains shown)
# VH: QVQLQQSGAEVVRPGASVTLSCKASDYTITDYEMHWVKQTPVHGLEWIGAIDPETGDTAYSQNFKGKATLTADESSSTAYMELSSLTSEDSAVYYCSRSATDYYFASWGQGTTLTVSS
# VL: B1 VL with F9I, I21M, I36T, Q47H, R79K
# notes: also called xi3C6
# B3: Chimeric 8F4 (antibody, human IgG2, kappa, V domains shown)
# VH: B1 VH with P9A, Y27H, I30T, S32Y, H35Q, I51F, V59A, S80Y, T97S, T113S
# VL: B1 VL with I2V, A7T
# notes: also called xi8F4
# B4: Chimeric 26A1 (antibody, human IgG2, kappa, V domains shown)
# VH: B1 VH with P9A, G26D, I30T, M34I, P41L, V59A, S80Y, D90G, T97S, Y103C
# VL: B1 VL
# notes: also called xi26A1
# B5: RG6149 (antibody Ab2 in CN104334582, prepared in-house) (antibody, human IgG2, kappa, V domains shown)
# VH: EVQLVQSGAEVKKPGESLKISCKGSGYSFTNYWIGWVRQMPGKGLEWMGIIYPGNSDTRFSPSFQGQVTISADKSITTAYLQWSSLKASDTAMYYCARHGTSSDYYGLDVWGQGTTVTVSS
# VL: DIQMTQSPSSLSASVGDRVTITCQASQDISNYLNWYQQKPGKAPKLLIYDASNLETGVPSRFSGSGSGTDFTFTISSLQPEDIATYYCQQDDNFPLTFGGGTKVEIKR
# notes: Control anti-ST2 antibody
# B6: Chimeric 7D1 (antibody, human IgG2, kappa, V domains shown)
# VH: QVQLQQSGAELVRPGASVTLSCKASGYTFTDYEMHWVKQTPVHGLDWIGTIDPETGDTAYNQKFKGRATLTADKSSSTAYMELSSLTSEDSAVYYCTRYSYTNSPYGMDYWGQGTSVTVSS
# VL: DVVMTQTPKFLLVSAGDRVTITCKASQSVSNDVAWYQQKPGQSPKLLIYYASNRYTGVPDRFTGSGYGTDFTFTINTVQAEDLAVYFCQQDYSSPYTFGGGTKLEIKR
# notes: also called xi7D1
# B7: Chimeric 17E2 (antibody, human IgG2, kappa, V domains shown)
# VH: QVQLQQSGAELVRPGASVTLSCKASGYTFTDYEMHWVKQTPVLGLEWIGAIDPETGDTAYNQKFKGKATLTADKSSSTAYMELSSLASEDSAVYYCIRVDSNYDYFDYWGQDTTLTVSS
# VL: DIVLTQSPPILSASPGEKVTMTCRASSSVSYMHWYQQKPGSSPKPWIYDTSNLASGVPARFSGSGSGTSYSLTISRVEAEDAATYYCQQWSSNPLTFGAGTKLELKR
# notes: also called xi17E2
# Key:
# [1] = target: T1, cynomolgus monkey ST2 antigen …; assay: ELISA, plate coated with Cyno-ST2-his
# Protocol: (§1) ST2 binding screening and analysis of antibodies were performed by ELISA using hST2-ECD-mFc (for assays of chimeric and humanized antibodies), hST2-ECD-hFc protein (for assays of hybridoma antibodies) and Cyno-ST2-his (Sino biological, 90915-C08H) as antigens. A high-adsorption 96-well plate (Costar, 9018) was coated with 2 µg/mL hST2-ECD-mFc or Cyno-ST2-his antigen at 100 µL/well and incubated overnight at 4° C. After the antigen not adsorbed was well washed off, the non-specific binding sites were blocked with a blocking buffer (PBS containing 2% bovine serum albumin). After the plate was washed three times with a washing buffer (PBS containing 0.05% (v/v) Tween 20), the anti-ST2 antibodies (serially diluted 3-fold from an initial concentration of 10 nM to 8 concentrations: 3.333 nM, 1.111 nM, 0.370 nM, 0.123 nM, 0.041 nM, 0.014 nM, 0.005 nM, and 0.002 nM) were added at 100 µL/well, and the plate was incubated at room temperature for 1 h. After the plate was washed with the washing buffer, a horseradish peroxidase (HRP)-conjugated secondary antibody was added, and the plate was incubated for another 60 min. After the plate was washed with the washing buffer, the substrate TMB solution (Thermo, 00-4201-56) was added at 100 µL/well, and the plate was incubated at room temperature for 2 min. A stop solution (2 N H₂SO₄) was added at 100 µL/well to terminate the reactions. Colorimetric signals were generated and read at 450 nm using a microplate reader (PE, Envision). The data were analyzed using GraphPad Prism5, and the EC₅₀ values were calculated.
# [2] = target: T2, recombinant protein containing hST2 …; assay: ELISA, plate coated with hST2-ECD-mFc
# Protocol: as §1
binder,measurement,setting,value
B1,EC50,[1],163 pM
same,EC50,[2],184 pM
B2,EC50,[1],430 pM
same,EC50,[2],157 pM
B3,EC50,[1],164 pM
same,EC50,[2],172 pM
B4,EC50,[1],946 pM
same,EC50,[2],175 pM
B5,EC50,[1],129 pM
same,EC50,[2],113 pM
B6,EC50,[1],191 pM
same,EC50,[2],191 pM
B7,EC50,[1],220 pM
same,EC50,[2],235 pM
